# T1: C-reactive protein (CRP) (UniProt P02741 19-224)
# T1 sequence: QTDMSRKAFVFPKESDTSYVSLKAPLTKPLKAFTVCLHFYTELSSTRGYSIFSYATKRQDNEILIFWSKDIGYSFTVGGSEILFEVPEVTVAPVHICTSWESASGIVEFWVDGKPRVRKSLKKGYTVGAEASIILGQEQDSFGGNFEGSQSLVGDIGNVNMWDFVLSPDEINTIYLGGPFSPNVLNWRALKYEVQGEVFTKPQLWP
# B1: CRP aptamer (ssDNA)
# DNA: CGAAGGGGATTCGAGGGGTGATTGCGTGCTCCATTTGGTG
# modifications: 5'-NH2
# Columns and labels:
# C-reactive protein (CRP) = target: T1, C-reactive protein (CRP); assay: electrochemiluminescence aptasensor; linear response 0.01-1000 ng/mL, LOD 8.5 pg/mL; immobilized aptamer; CRP incubation 4 °C, 1 h on BSA-blocked aptamer electrode; wash 0.01 M PBS pH 7.4; ECL read in 3 mM TPA, 0.01 M PBS pH 7.4, room temperature; details: protein: commercial; chain copies: 5
# [1] = target: carcinoembryonic antigen (CEA) (UniProt P06731 35-685); assay: electrochemiluminescence aptasensor; selectivity test; no significant ECL decrease; CRP incubation 4 °C, 1 h on BSA-blocked aptamer electrode; wash 0.01 M PBS pH 7.4; ECL read in 3 mM TPA, 0.01 M PBS pH 7.4, room temperature; details: protein: commercial
# Chain of carcinoembryonic antigen (CEA) (P06731 35-685): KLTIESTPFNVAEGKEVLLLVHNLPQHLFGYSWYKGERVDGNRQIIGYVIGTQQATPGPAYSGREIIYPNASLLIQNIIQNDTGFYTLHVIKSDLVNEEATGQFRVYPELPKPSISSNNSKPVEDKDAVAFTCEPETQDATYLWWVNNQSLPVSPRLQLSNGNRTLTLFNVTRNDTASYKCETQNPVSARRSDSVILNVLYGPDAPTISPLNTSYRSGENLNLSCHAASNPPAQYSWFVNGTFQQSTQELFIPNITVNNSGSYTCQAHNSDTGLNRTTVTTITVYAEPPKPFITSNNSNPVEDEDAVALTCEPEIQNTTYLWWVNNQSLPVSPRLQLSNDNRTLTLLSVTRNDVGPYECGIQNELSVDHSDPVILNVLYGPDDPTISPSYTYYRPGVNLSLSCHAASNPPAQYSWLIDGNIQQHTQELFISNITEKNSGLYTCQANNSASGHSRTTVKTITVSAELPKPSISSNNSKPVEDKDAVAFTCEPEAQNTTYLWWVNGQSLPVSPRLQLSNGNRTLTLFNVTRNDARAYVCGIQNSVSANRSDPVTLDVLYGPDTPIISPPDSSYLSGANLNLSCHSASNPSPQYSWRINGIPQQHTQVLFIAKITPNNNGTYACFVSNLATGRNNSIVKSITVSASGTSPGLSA
# [2] = target: carbohydrate antigen 15-3 (CA15-3) (UniProt P15941 24-1097); assay: as above; details: protein: commercial
# Chain of carbohydrate antigen 15-3 (CA15-3) (P15941 24-1097): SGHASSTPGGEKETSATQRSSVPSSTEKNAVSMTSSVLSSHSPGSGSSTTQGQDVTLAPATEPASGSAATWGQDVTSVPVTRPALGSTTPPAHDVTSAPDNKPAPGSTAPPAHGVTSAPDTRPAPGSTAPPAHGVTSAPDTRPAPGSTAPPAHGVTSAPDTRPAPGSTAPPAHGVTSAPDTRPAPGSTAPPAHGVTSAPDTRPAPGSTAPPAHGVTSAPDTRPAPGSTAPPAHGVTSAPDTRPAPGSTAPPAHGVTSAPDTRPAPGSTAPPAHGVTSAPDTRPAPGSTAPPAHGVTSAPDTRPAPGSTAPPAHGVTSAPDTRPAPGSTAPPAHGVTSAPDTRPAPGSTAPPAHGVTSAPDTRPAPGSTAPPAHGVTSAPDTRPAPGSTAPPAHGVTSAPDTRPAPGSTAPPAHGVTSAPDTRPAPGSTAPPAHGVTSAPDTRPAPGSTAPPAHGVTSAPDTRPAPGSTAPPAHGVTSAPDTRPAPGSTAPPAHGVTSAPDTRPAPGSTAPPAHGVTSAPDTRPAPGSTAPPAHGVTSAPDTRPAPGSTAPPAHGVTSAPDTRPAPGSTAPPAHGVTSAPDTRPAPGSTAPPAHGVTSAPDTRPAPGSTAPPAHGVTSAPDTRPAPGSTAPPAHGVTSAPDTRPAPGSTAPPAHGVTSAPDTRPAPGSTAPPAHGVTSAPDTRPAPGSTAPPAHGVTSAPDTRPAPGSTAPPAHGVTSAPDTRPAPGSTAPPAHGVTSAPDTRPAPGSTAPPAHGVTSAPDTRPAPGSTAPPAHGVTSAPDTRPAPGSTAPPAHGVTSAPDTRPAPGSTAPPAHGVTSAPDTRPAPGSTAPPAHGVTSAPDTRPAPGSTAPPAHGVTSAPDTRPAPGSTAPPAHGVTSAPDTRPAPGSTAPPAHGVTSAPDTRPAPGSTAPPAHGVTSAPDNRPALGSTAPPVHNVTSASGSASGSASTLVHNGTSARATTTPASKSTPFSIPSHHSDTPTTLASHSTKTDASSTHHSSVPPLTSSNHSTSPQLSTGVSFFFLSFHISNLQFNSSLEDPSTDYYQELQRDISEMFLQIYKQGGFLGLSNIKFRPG
binder,measurement,setting,value
B1,binding result,C-reactive protein (CRP),binds
same,binding result,[1],no binding
same,binding result,[2],no binding

# Reference: PMC10708393, “The Fabrication of a Probe-Integrated Electrochemiluminescence Aptasensor Based on Double-Layered Nanochannel Array with Opposite Charges for the Sensitive Determination of C-Reactive Protein”
